# Reference: paper PMC4509486
# Key:
# Assay in all cases: cross-linking; copper-phenanthroline (1 mM CuSO4/3 mM 1,10-phenanthroline) disulfide cross-linking of purified protein (1 mg/ml) in 20 mM HEPES pH 7.4, 150 mM NaCl, 1 mM TCEP, on ice 15 min; non-reducing SDS-PAGE; efficiency = dimer/(monomer + dimer)
# [1] = biological target: GB1-TM-CC1 monocysteine variant I222C (not stated (human or mouse cDNA cloned)) (UniProt Q13586)
# [2] = biological target: GB1-TM-CC1 monocysteine variant A230C (not stated (human or mouse cDNA cloned)) (UniProt Q13586)
# [3] = biological target: GB1-TM-CC1 monocysteine variant G226C (not stated (human or mouse cDNA cloned)) (UniProt Q13586)
substance,measurement,setting,value
GB1-TM-CC1 monocysteine variant I222C (from UniProt Q13586 209-310) (domain or fragment),disulfide cross-linking efficiency,[1],> 70%
GB1-TM-CC1 monocysteine variant A230C (from UniProt Q13586 209-310) (domain or fragment),disulfide cross-linking efficiency,[2],> 70%
GB1-TM-CC1 monocysteine variant G226C (from UniProt Q13586 209-310) (domain or fragment),disulfide cross-linking efficiency,[3],> 70%
